For test [1], the target named is T1, SEZ6 N3 (aa 170-335) on yeast (human, UniProt Q53EL9 189-354).
T1 construct: yeast display
T1 sequence: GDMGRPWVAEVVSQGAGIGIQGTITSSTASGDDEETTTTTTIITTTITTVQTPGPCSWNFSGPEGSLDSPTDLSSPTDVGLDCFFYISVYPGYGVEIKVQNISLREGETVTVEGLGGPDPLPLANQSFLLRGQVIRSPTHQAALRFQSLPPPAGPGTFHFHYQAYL
Description: yeast display, flow cytometry.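 Also: antibody binding to individual SEZ6 domains displayed on yeast, measured by flow cytometry, antibody at 50 nM purified or hybridoma supernatant diluted 1:2, 90 min on ice.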 In general terms: In flow cytometry, cells or beads pass a laser one at a time.

For the next test, the target named is T2, human SEZ6L2 ECD-His (human, UniProt Q6UXD5 28-843).
T2 construct: whole entry named
T2 sequence (Q6UXD5 other isoform, or with tags, fused parts or gaps): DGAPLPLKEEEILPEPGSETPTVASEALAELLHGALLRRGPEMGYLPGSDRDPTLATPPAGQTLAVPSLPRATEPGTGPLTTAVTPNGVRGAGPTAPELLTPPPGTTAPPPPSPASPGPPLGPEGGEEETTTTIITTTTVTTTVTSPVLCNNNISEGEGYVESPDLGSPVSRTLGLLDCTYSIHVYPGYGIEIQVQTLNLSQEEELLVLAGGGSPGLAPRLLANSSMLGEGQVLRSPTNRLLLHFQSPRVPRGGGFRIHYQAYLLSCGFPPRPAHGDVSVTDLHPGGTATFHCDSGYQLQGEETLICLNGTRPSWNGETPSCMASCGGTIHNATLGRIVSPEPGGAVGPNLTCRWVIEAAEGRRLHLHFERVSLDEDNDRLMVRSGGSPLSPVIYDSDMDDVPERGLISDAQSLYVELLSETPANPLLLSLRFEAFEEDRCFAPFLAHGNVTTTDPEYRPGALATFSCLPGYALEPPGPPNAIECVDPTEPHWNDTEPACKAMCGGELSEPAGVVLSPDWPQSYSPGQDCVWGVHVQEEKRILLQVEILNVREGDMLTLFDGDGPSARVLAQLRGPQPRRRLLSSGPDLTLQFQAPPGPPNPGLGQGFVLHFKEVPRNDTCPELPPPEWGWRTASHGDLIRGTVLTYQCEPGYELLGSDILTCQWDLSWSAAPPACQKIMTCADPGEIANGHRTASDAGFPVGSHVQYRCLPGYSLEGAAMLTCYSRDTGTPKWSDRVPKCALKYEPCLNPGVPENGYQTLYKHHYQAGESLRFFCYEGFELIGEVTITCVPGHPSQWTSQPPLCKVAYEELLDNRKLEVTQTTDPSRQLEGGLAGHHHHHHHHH
Description: ELISA on plates coated with SEZ6L2 protein. On the technique in general: An ELISA detects its analyte on a solid surface through an enzyme-linked reagent.

Another test concerns the target T3, human SEZ6L ECD-His (human, UniProt Q9BYH1 29-955).
T3 construct: whole entry named
T3 sequence: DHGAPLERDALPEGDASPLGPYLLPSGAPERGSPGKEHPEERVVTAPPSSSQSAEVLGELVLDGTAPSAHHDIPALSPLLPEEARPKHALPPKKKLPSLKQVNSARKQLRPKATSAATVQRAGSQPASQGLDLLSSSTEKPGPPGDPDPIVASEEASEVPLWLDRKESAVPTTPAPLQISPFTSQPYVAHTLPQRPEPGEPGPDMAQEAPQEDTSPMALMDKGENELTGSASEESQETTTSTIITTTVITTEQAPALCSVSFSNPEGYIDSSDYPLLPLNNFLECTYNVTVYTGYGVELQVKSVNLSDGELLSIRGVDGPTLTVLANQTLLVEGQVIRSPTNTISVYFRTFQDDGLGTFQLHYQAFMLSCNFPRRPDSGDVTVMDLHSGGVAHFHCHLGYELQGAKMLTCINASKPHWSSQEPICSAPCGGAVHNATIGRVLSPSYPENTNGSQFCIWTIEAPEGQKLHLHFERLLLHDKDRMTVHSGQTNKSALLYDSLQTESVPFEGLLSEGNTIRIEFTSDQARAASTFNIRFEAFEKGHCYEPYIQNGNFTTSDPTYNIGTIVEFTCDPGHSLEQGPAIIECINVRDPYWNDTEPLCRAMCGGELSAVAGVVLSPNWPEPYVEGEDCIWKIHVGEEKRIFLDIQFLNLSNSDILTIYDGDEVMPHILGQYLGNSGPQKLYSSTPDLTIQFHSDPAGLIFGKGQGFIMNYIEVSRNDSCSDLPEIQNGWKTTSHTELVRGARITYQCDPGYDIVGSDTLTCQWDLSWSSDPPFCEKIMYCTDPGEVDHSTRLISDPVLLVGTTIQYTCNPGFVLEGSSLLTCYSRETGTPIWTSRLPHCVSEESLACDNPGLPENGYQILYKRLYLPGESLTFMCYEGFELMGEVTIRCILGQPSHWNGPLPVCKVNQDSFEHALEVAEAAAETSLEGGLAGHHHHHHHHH
The test is described as follows: ELISA on plates coated with SEZ6L protein.

For a further test, the target named is T4, rSEZ6-ECD-His (rat, UniProt Q7TSK2 20-922 (mouse entry)).
T4 construct: the whole entry is named; also called rat recombinant SEZ6-His; rat SEZ6 ECD
T4 chain: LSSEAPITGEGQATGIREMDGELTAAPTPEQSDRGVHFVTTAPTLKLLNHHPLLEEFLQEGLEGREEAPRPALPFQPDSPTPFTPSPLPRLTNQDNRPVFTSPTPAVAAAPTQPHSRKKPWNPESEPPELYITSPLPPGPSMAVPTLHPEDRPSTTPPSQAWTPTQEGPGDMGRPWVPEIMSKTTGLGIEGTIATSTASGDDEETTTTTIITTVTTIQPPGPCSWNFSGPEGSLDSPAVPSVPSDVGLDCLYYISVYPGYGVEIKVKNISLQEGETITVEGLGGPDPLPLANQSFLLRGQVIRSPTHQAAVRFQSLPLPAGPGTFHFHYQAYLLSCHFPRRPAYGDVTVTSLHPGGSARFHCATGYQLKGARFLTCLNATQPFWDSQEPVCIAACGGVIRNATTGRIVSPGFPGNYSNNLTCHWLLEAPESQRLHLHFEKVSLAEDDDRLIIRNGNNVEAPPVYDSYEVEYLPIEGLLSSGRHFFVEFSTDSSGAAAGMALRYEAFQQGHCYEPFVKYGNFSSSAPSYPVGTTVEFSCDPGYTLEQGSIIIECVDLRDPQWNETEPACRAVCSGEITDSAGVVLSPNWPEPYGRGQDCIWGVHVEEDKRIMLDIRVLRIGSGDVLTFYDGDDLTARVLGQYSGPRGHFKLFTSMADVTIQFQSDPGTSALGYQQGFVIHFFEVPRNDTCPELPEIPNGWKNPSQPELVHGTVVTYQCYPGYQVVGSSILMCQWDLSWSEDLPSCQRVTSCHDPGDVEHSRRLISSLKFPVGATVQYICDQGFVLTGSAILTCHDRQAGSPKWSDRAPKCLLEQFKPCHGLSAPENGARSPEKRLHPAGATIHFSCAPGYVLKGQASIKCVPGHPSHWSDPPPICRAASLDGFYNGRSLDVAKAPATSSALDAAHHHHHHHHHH
The test is described as follows: bio-layer interferometry (ForteBio RED) or surface plasmon resonance (Biacore 2000) on rat SEZ6-His; the table does not say which; column Rat XR (Kd, nM). On the technique in general: BLI is a label-free optical method that tracks binding on a fibre tip over time.

The target in test [2] is T5, extracellular domain of cynomolgus SEZ6 on yeast (cynomolgus, UniProt Q53EL9 23-925 (human entry)).
T5 construct: yeast display; the whole entry is named; also called cSEZ6; cynomolgus SEZ6 ECD
T5 chain: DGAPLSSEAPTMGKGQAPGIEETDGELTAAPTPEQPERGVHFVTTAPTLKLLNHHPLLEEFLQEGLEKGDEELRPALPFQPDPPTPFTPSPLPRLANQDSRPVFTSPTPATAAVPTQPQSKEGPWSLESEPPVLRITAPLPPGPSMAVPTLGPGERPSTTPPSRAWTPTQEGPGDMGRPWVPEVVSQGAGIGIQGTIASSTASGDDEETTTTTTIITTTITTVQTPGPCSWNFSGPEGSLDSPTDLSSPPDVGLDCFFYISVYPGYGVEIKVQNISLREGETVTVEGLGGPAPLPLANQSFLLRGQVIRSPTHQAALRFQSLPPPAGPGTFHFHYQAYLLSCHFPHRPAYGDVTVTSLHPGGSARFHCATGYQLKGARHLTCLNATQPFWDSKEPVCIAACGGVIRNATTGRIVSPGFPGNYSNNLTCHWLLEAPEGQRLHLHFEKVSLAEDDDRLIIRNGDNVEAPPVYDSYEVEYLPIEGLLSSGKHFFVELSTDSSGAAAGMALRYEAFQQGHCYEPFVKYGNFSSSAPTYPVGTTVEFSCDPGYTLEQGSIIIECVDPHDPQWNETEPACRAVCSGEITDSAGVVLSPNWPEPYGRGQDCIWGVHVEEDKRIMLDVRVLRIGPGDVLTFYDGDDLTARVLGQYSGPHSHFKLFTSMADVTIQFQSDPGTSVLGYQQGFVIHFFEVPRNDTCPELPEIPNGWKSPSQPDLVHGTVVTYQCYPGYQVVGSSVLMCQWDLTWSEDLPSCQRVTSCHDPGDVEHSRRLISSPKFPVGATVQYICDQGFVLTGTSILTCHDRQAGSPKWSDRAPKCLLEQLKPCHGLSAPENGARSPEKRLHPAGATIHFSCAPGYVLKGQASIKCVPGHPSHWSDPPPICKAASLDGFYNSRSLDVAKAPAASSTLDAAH
Description: flow cytometry on yeast displaying the extracellular domain of cynomolgus SEZ6.

For another test, the target named is T6, hSEZ6-ECD-His (human, UniProt Q53EL9 20-925).
T6 construct: the whole entry is named; also called recombinant SEZ6-His; human recombinant SEZ6-His
The test is described as follows: bio-layer interferometry (ForteBio RED) or surface plasmon resonance (Biacore 2000) on human SEZ6-His; the table does not say which; column Hu Affinity (Kd, nM).

Test [3] concerns the target T7, rat SEZ6 on RIN-m5F cells (rat, UniProt Q7TSK2 20-991 (mouse entry)).
T7 construct: endogenous on RIN-m5F cells; also called rSEZ6
T7 chain: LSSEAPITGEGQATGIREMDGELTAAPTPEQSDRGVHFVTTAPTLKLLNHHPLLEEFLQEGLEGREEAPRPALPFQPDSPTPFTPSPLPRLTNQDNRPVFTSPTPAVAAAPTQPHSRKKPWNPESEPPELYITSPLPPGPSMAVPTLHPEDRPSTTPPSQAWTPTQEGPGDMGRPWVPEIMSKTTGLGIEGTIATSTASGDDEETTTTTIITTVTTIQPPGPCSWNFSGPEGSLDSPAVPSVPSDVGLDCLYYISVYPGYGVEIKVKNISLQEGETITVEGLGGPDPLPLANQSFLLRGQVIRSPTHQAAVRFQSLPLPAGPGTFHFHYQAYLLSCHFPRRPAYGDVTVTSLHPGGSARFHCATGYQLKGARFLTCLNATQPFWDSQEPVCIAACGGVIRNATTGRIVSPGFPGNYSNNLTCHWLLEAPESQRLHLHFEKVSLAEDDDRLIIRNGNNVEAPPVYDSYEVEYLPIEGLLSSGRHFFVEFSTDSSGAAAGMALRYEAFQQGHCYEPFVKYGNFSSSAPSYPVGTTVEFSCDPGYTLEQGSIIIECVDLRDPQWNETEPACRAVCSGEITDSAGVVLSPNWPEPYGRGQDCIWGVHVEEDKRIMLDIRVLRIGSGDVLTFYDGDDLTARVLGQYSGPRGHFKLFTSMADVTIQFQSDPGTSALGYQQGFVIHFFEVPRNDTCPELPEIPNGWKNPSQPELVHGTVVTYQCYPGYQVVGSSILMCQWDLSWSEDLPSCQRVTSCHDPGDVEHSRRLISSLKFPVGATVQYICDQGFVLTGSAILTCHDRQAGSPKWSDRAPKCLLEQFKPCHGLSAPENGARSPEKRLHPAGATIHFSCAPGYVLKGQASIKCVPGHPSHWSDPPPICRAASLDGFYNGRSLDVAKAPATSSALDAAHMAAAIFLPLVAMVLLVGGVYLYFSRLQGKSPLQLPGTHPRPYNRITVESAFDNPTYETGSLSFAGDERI
Description: flow cytometry on RIN-m5F cells expressing rat SEZ6, verified by BLI or SPR on rat SEZ6-His.

Test [4] concerns the target T8, SEZ6 Sushi Domain 1 (amino acids 336-395) on yeast (human, UniProt Q53EL9 355-414).
T8 construct: yeast display
Description: yeast display, flow cytometry.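 Also: antibody binding to individual SEZ6 domains displayed on yeast, measured by flow cytometry, antibody at 50 nM purified or hybridoma supernatant diluted 1:2, 90 min on ice.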

Test [5] has as its target T9, mouse SEZ6 on Neuro2a cells (mouse, UniProt Q7TSK2 20-991).
T9 construct: endogenous on Neuro2a cells; also called murine SEZ6; mSEZ6
The test is described as follows: flow cytometry on Neuro2a cells expressing mouse SEZ6.

B1: SC17.91 (antibody, V domains shown)
VH: EVQLVESGGGLVKPGGSRKLSCAASGFTFSDYGMHWVRQAPEKGLEWVAYISRGSSTIHYADTVKGRFTISRDNAKNTLFLQMTSLRSEDTAMYYCARPFNWYFDVWGAGTTVTVSS
VL: DVVMTQTPLSLPVSLGDQASISCRSSQSLVHSNGNTYLLWYLQKPGQSPKLLIYKVSNRFSGVPDRFSGSGSGTDFALKISRVEAEDLGVYFCSQSTHVPWTFGGGTKLEIK
notes: murine mAb
Turning to B1, in test [1], the binding result was “binds”.

B2: SC17.161 (antibody, V domains shown)
VH: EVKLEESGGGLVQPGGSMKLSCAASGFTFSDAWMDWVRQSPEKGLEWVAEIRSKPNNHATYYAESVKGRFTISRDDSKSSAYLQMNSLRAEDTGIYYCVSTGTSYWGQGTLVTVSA
VL: DIVMSQSPSSLAVSVGEKVTMNCESSQSLLYNSNQKNYLAWYQQKPGQSPKLLIYWASTRDSGVPDRFTGSGSGTDFTLTISSVRADDPAVYYCQQYFNYPLTFGAGTKLELK
notes: murine mAb
In the case of B2, the binding result in test [1] is “binds”.

B3: SC17.42 (antibody, V domains shown)
VH: DVKLVESGGGLVRPGGSLKLSCAASGFTFSRYTMSWVRQTPEKRLEWAATINSGGSNTYYPDSVKGRFTISRDNAKNTLFLQMSSLKSEDTAMYYCTNGNHWGQGTTLTVSS
VL: ENVLTQSPAIMSASPGEKVTMTCSASSSVNYMYWYQQKSSTSPKLWIYDTSKLTSGVPGRFSGSGSGNSYSLTISNMEAEDVATYYCFQGSGYPLTFGSGTKLEIK
notes: murine mAb
As usually defined, the Kd is a measure of binding affinity in units of concentration. High values mean lower affinity, low ones higher affinity. For the molecule B3, the binding result in the test with human SEZ6L2 ECD-His is “no binding (tested: 1 µg/mL)”; in the test with human SEZ6L ECD-His, “no binding (tested: 1 µg/mL)”; in [2], “no binding (tested: 5 µg/mL)”. The Kd with rSEZ6-ECD-His is 3 nM; in the test with hSEZ6-ECD-His, 2.7 nM.

B4: SC17.46 (antibody, V domains shown)
VH: QVQLQQPGAELVKPGASMKLSCKASGYTFTSYWINWVKQRPGQGLEWIGNIFPDTTTTNYNEKFKSKATLTVDTSSSTAYMQLSSLTSDDSAVYYCAREYYDGTYDAMDYWGQGTSVTV
VL: SFVMTQTPKFLLVSAGDRVTITCKASQSVNNDVAWYQQKPGQSPKLLIYYASNRYTGVPDRFTGSGYGTDFTFTISTVQAEDLAVYFCQQDYSSPRTFGGGTKLEIK
notes: murine mAb
As for B4, the binding result was “no binding (tested: 1 µg/mL)” in the test with human SEZ6L2 ECD-His; “no binding (tested: 5 µg/mL)” in test [3]; “no binding (tested: 1 µg/mL)” with human SEZ6L ECD-His; “binds” in test [4]; “no binding (tested: 5 µg/mL)” in [5]; “no binding (tested: 5 µg/mL)” in test [2].
